The target of this test is Aβ(1-40) peptide, monomeric (UniProt P05067 672-711). Description: SPR. For orientation: SPR reads the build-up and loss of mass on a sensor chip optically.

B1: anticalin H1GA (Aβ-anticalin) (designed binder)
chain: QDSTSDLIPAPPLSKVPLQQNFQDNQFHGKWYVVGAAGNVLLREDKDPLKMYATIYELKEDKSYNVTSVGFDDKKCLYKIRTFVPGSQPGEFTLGRIKSEPGGTSWLVRVVSTNYNQHAMVFFKEVAQNRETFNITLYGRTKELTSELKENFIRFSKSLGLPENHIVFPVPIDQCIDG
As a reminder, the Kd is the constant that tells how readily two partners part at equilibrium. Higher therefore signals weaker binding. On to B1, for which the Kd was 0.54 nM.

These data come from paper PMC11237084 (2024).
